Data reported in IntAct's records for PubMed 25737013.

B1: Protein arginine N-methyltransferase 9 (Homo sapiens), Q6P2P2 (parent)
chain: MSNSRPRSRRDAGGGAGAAGRDELVSRSLQSAEHCLGVQDFGTAYAHYLLVLSLAPELKHDVKETFQYTLFRWAEELDALSRIQDLLGCYEQALELFPDDEVICNSMGEHLFRMGFRDEAAGYFHKAVKLNPDFSDAKENFYRVANWLVERWHFIMLNDTKRNTIYNAAIQKAVCLGSKSVLDIGAGTGILSMFAKKAGAHSVYACELSKTMYELACDVVAANKMEAGIKLLHTKSLDIEIPKHIPERVSLVVTETVDAGLFGEGIVESLIHAWEHLLLQPKTKGESANCEKYGKVIPASAVIFGMAVECAEIRRHHRVGIKDIAGIHLPTNVKFQSPAYSSVDTEETIEPYTTEKMSRVPGGYLALTECFEIMTVDFNNLQELKSLATKKPDKIGIPVIKEGILDAIMVWFVLQLDDEHSLSTSPSEETCWEQAVYPVQDLADYWIKPGDHVMMEVSCQDCYLRIQSISVLGLECEMDVAKSFTQNKDLLSLGNEAELCSALANLQTSKPDAVEQTCILESTEIALLNNIPYHEGFKMAMSKVLSSLTPEKLYQTMDTHCQNEMSSGTGQSNTVQNILEPFYVLDVSEGFSVLPVIAGTLGQVKPYSSVEKDQHRIALDLISEANHFPKETLEFWLRHVEDESAMLQRPKSDKLWSIIILDVIEPSGLIQQEIMEKAAISRCLLQSGGKIFPQYVLMFGLLVESQTLLEENAVQGTERTLGLNIAPFINQFQVPIRVFLDLSSLPCIPLSKPVELLRLDLMTPYLNTSNREVKVYVCKSGRLTAIPFWYHMYLDEEIRLDTSSEASHWKQAAVVLDNPIQVEMGEELVLSIQHHKSNVSITVKQ
B2: Splicing factor 3B subunit 2 (Homo sapiens), Q13435 (parent)
chain: MATEHPEPPKAELQLPPPPPPGHYGAWAAQELQAKLAEIGAPIQGNREELVERLQSYTRQTGIVLNRPVLRGEDGDKAAPPPMSAQLPGIPMPPPPLGLPPLQPPPPPPPPPPGLGLGFPMAHPPNLGPPPPLRVGEPVALSEEERLKLAQQQAALLMQQEERAKQQGDHSLKEHELLEQQKRAAVLLEQERQQEIAKMGTPVPRPPQDMGQIGVRTPLGPRVAAPVGPVGPTPTVLPMGAPVPRPRGPPPPPGDENREMDDPSVGPKIPQALEKILQLKESRQEEMNSQQEEEEMETDARSSLGQSASETEEDTVSVSKKEKNRKRRNRKKKKKPQRVRGVSSESSGDREKDSTRSRGSDSPAADVEIEYVTEEPEIYEPNFIFFKRIFEAFKLTDDVKKEKEKEPEKLDKLENSAAPKKKGFEEEHKDSDDDSSDDEQEKKPEAPKLSKKKLRRMNRFTVAELKQLVARPDVVEMHDVTAQDPKLLVHLKATRNSVPVPRHWCFKRKYLQGKRGIEKPPFELPDFIKRTGIQEMREALQEKEEQKTMKSKMREKVRPKMGKIDIDYQKLHDAFFKWQTKPKLTIHGDLYYEGKEFETRLKEKKPGDLSDELRISLGMPVGPNAHKVPPPWLIAMQRYGPPPSYPNLKIPGLNSPIPESCSFGYHAGGWGKPPVDETGKPLYGDVFGTNAAEFQTKTEEEEIDRTPWGELEPSDEESSEEEEEEESDEDKPDETGFITPADSGLITPGGFSSVPAGMETPELIELRKKKIEEAMDGSETPQLFTVLPEKRTATVGGAMMGSTHIYDMSTVMSRKGPAPELQGVEVALAPEELELDPMAMTQKYEEHVREQQAQVEKEDFSDMVAEHAAKQKQKKRKAQPQDSRGGSKKYKEFKF
partner: B1 chain
B3: Splicing factor 3B subunit 2 (Homo sapiens), Q13435 (parent)
chain: B2 chain

Variants of: B1
Conditions: with sf3b2_human SF3B2, Q13435
In the case of L182A;D183A;I184A;G185A, the “effect of a mutation on the interaction” value is reported as “disrupting interaction strength”.

Variants of: B2
Conditions: with anm9_human PRMT9, Q6P2P2
For R530K, the “effect of a mutation on the interaction” value was “with no effect”. For R471K, the “effect of a mutation on the interaction” value was “with no effect”. In the case of R502K, the “effect of a mutation on the interaction” value is reported as “with no effect”. For R515K, the “effect of a mutation on the interaction” value was “with no effect”. For R495K, the “effect of a mutation on the interaction” value was “with no effect”. In the case of R455K;R456K;R459K, the “effect of a mutation on the interaction” value is reported as “with no effect”. In the case of R537K, the “effect of a mutation on the interaction” value is reported as “with no effect”.

Variants of: B2
Conditions: with anm9_human PRMT9, Q6P2P2
Remark: another data set of the same source
In the case of R508K, the “effect of a mutation on the interaction” value is reported as “with no effect”.

Variants of: B3
Conditions: with smn_human SMN1, Q16637
Chain of smn_human SMN1, Q16637 (Q16637 whole entry): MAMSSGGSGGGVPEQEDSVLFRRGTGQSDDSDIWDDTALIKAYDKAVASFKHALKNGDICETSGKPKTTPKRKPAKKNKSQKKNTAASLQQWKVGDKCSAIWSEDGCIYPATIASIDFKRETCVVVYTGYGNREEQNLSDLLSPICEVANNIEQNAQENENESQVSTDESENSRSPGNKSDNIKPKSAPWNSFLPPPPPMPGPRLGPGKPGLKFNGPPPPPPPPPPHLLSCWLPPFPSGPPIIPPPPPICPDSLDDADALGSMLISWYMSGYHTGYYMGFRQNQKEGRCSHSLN
For R508K, the “effect of a mutation on the interaction” value was “disrupting interaction strength”.
